Article PMC10511561, “Synergism between CMG helicase and leading strand DNA polymerase at replication fork” (Nature Communications, 2023)

T1: Dpb2 (subunit of Polε in the replisome) (yeast, UniProt P24482 1-689)
T1 construct: Dpb2, yeast, subunit of Polε; NTD 12-98, linker 99-156, PDE domain 157-689 as printed; Chain of m2 as it stands in the replisome structure; also called Dpb2-NTD; Dpb2-OB; source: yeast strain yAJ2, purified as part of Polε (calmodulin resin, TEV elution, Mono Q, Superose 6)
T1 sequence: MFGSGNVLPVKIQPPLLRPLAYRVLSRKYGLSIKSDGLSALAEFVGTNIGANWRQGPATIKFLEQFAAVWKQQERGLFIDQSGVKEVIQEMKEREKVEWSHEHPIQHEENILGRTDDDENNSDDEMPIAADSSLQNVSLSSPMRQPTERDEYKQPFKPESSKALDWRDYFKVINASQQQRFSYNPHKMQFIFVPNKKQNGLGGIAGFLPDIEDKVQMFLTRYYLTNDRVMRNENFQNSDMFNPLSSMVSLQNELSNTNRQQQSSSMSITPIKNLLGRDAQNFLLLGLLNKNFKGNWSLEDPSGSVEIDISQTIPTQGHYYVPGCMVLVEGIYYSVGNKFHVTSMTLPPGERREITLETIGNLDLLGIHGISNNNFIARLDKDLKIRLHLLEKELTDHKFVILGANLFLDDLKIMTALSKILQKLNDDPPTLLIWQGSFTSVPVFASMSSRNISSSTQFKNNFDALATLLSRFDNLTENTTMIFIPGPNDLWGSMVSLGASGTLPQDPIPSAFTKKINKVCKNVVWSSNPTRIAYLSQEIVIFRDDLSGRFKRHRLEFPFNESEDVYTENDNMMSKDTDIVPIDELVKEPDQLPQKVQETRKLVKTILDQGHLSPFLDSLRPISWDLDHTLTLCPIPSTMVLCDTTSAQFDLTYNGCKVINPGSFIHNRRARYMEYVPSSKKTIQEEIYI


Legend:
Experiment in all cases: cryo-EM structure; replisome assembled at room temperature from 0.7 uM CMG, forked DNA and ATPγS, then 1.5 molar excess of Polε, Ctf4, Tof1-Csm3; 100 mM KCl, 25 mM HEPES pH 7.6, 4 mM MgCl2, 4 mM ATPγS; 10-30% glycerol gradient with glutaraldehyde fixation; States I-VI by 3D classification
Settings in all cases: both partners purified
Tof1-Csm3 = biological target: T2, Tof1-Csm3 (yeast, UniProt P53840 1-1238; Q04659 1-317)
T2 construct: Tof1, yeast; Csm3, yeast; Purified beforehand as one complex; also called Tof1 and Csm3; components of the fork protection complex (FPC); source: yeast strain yAE48, galactose-induced, purified (calmodulin resin, TEV elution, Mono Q, Superose 6); not shown: CBP, N-terminal, cleaved

[1] = biological target: T3, Pol2 (subunit of Polε in the replisome) (yeast, UniProt P21951 1-2222)
T3 construct: Pol2, yeast, catalytic subunit of Polε; Chain of m2 as it stands in the replisome structure; the catalytic NTD is flexible and not resolved; also called Pol2-CTD; Pol2-ZF2; source: yeast strain yAJ2, purified as part of Polε (calmodulin resin, TEV elution, Mono Q, Superose 6); not shown: CBP, N-terminal, cleaved

[2] = biological target: T1, Dpb2 (subunit of Polε in the replisome)

T3 sequence (P21951 whole entry): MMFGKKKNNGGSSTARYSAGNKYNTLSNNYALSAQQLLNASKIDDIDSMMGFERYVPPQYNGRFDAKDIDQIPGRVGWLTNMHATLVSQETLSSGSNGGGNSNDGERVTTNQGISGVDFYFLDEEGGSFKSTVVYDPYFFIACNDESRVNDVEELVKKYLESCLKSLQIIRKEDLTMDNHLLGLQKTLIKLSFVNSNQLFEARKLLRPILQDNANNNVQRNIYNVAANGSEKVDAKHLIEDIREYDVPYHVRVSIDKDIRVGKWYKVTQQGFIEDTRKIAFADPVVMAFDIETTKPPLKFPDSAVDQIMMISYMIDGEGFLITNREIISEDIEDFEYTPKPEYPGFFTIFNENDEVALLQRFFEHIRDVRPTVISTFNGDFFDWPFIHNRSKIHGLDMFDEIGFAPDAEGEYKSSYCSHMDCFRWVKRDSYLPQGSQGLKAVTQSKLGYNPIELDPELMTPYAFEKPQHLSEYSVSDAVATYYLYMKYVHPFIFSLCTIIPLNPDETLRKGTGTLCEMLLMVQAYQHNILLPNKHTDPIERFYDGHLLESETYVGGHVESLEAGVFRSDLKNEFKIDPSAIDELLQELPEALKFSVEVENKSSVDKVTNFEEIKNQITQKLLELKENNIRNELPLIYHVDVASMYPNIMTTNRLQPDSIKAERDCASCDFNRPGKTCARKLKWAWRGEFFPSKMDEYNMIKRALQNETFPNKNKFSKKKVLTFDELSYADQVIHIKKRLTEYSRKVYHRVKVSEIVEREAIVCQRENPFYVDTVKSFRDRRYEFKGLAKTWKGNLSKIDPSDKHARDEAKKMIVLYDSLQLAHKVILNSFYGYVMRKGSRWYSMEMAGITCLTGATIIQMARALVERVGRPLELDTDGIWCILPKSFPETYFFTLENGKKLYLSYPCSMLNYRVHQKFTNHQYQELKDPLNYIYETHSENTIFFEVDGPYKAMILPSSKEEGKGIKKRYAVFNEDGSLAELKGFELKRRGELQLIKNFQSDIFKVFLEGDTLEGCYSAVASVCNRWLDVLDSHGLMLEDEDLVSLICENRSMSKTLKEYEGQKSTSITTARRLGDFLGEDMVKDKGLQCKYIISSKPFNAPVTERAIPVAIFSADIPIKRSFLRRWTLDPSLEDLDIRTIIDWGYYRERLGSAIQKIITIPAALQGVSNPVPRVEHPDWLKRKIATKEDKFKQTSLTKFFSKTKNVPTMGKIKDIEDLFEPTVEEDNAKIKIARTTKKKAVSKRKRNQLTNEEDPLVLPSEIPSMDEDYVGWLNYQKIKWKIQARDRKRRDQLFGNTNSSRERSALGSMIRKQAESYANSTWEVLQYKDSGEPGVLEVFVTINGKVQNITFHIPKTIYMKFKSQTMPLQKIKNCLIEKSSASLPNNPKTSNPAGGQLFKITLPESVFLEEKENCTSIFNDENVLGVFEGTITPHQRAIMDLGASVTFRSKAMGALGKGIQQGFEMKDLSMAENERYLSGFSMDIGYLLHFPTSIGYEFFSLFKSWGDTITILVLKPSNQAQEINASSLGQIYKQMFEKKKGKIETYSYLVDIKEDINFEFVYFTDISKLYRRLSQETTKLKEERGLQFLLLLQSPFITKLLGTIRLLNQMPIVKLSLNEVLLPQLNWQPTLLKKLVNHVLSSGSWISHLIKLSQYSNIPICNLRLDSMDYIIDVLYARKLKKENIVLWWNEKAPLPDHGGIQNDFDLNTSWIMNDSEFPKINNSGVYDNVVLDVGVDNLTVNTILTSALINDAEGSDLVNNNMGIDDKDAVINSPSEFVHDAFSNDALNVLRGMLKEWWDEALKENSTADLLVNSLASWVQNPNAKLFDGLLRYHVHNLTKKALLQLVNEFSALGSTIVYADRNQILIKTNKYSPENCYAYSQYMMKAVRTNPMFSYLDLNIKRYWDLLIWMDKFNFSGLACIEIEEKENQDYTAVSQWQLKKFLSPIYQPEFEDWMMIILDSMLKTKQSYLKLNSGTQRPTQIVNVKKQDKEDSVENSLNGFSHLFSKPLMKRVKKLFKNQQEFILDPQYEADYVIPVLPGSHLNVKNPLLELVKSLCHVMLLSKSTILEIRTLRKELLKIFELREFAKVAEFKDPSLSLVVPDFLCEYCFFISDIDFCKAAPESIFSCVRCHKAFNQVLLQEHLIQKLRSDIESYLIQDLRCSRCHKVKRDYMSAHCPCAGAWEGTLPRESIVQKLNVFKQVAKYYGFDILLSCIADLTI
T2 sequence (P53840 whole entry, chain 1 of 2): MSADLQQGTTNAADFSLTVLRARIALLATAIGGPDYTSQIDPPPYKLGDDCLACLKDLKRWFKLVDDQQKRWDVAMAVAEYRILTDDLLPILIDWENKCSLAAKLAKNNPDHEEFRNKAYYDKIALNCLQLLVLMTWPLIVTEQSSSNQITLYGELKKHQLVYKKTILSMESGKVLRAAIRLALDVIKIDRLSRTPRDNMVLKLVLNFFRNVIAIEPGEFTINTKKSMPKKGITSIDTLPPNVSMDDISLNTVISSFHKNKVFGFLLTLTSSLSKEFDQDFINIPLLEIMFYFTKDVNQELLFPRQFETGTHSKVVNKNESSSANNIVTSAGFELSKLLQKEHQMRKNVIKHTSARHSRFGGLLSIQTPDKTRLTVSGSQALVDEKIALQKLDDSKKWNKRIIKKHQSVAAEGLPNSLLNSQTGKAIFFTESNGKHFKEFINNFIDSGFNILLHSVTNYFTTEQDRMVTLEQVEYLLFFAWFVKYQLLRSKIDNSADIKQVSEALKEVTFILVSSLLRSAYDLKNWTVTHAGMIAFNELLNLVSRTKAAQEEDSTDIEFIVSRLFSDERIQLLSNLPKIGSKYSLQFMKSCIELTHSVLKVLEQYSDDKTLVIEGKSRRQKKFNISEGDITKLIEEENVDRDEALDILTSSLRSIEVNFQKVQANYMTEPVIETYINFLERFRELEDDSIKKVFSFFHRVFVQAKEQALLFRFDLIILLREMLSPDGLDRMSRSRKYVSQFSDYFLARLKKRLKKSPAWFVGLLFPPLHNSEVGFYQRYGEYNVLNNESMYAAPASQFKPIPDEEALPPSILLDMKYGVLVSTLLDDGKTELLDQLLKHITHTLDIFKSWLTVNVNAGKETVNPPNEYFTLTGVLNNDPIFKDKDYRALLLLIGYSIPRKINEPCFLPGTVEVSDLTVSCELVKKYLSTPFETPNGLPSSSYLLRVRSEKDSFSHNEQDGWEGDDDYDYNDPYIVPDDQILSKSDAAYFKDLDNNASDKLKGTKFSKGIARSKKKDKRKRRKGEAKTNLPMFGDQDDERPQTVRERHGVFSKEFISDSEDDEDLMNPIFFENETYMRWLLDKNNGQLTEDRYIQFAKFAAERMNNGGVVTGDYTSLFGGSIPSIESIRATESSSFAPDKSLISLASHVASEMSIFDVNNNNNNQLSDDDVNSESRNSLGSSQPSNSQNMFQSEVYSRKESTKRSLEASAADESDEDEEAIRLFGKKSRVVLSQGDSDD
T2 sequence (Q04659 whole entry, chain 2 of 2): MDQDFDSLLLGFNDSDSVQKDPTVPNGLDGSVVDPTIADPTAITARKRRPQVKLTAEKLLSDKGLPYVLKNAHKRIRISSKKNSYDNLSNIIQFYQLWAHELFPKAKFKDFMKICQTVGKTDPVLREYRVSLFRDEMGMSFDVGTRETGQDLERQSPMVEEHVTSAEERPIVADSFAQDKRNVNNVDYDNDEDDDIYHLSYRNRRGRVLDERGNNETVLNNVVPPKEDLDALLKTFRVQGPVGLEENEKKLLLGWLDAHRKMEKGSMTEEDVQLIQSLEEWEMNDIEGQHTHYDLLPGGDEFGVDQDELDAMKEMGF

| Binder | binding result (Tof1-Csm3) | binding result [1] | other results |
| --- | --- | --- | --- |
| Mcm6 (subunit of CMG) (natural protein, yeast, Mcm6, yeast; Chain of m1 as it stands in the replisome structure; source: yeast strain yJCZ2, purified as part of CMG (anti-FLAG M2 resin, Mono Q, Superose 6)) MSSPFPADTPSSNRPSNSSPPPSSIGAGFGSSSGLDSQIGSRLHFPSSSQPHVSNSQTGPFVNDSTQFSSQRLQTDGSATNDMEGNEPARSFKSRALNHVKKVDDVTGEKVREAFEQFLEDFSVQSTDTGEVEKVYRAQIEFMKIYDLNTIYIDYQHLSMRENGALAMAISEQYYRFLPFLQKGLRRVVRKYAPELLNTSDSLKRSEGDEGQADEDEQQDDDMNGSSLPRDSGSSAAPGNGTSAMATRSITTSTSPEQTERVFQISFFNLPTVHRIRDIRSEKIGSLLSISGTVTRTSEVRPELYKASFTCDMCRAIVDNVEQSFKYTEPTFCPNPSCENRAFWTLNVTRSRFLDWQKVRIQENANEIPTGSMPRTLDVILRGDSVERAKPGDRCKFTGVEIVVPDVTQLGLPGVKPSSTLDTRGISKTTEGLNSGVTGLRSLGVRDLTYKISFLACHVISIGSNIGASSPDANSNNRETELQMAANLQANNVYQDNERDQEVFLNSLSSDEINELKEMVKDEHIYDKLVRSIAPAVFGHEAVKKGILLQMLGGVHKSTVEGIKLRGDINICVVGDPSTSKSQFLKYVVGFAPRSVYTSGKASSAAGLTAAVVRDEEGGDYTIEAGALMLADNGICCIDEFDKMDISDQVAIHEAMEQQTISIAKAGIHATLNARTSILAAANPVGGRYNRKLSLRGNLNMTAPIMSRFDLFFVILDDCNEKIDTELASHIVDLHMKRDEAIEPPFSAEQLRRYIKYARTFKPILTKEARSYLVEKYKELRKDDAQGFSRSSYRITVRQLESMIRLSEAIARANCVDEITPSFIAEAYDLLRQSIIRVDVDDVEMDEEFDNIESQSHAASGNNDDNDDGTGSGVITSEPPADIEEGQSEATARPGTSEKKKTTVTYDKYVSMMNMIVRKIAEVDREGAEELTAVDIVDWYLLQKENDLGSLAEYWEERRLAFKVIKRLVKDRILMEIHGTRHNLRDLENEENENNKTVYVIHPNCEVLDQLEPQDSS | binds | – | – |
| Mcm2 (subunit of CMG) (natural protein, yeast, Mcm2, yeast; Chain of m1 as it stands in the replisome structure; source: yeast strain yJCZ2, purified as part of CMG (anti-FLAG M2 resin, Mono Q, Superose 6)) MSDNRRRRREEDDSDSENELPPSSPQQHFRGGMNPVSSPIGSPDMINPEGDDNEVDDVPDIDEVEEQMNEVDLMDDNMYEDYAADHNRDRYDPDQVDDREQQELSLSERRRIDAQLNERDRLLRNVAYIDDEDEEQEGAAQLDEMGLPVQRRRRRRQYEDLENSDDDLLSDMDIDPLREELTLESLSNVKANSYSEWITQPNVSRTIARELKSFLLEYTDETGRSVYGARIRTLGEMNSESLEVNYRHLAESKAILALFLAKCPEEMLKIFDLVAMEATELHYPDYARIHSEIHVRISDFPTIYSLRELRESNLSSLVRVTGVVTRRTGVFPQLKYVKFNCLKCGSILGPFFQDSNEEIRISFCTNCKSKGPFRVNGEKTVYRNYQRVTLQEAPGTVPPGRLPRHREVILLADLVDVSKPGEEVEVTGIYKNNYDGNLNAKNGFPVFATIIEANSIKRREGNTANEGEEGLDVFSWTEEEEREFRKISRDRGIIDKIISSMAPSIYGHRDIKTAVACSLFGGVPKNVNGKHSIRGDINVLLLGDPGTAKSQILKYVEKTAHRAVFATGQGASAVGLTASVRKDPITKEWTLEGGALVLADKGVCLIDEFDKMNDQDRTSIHEAMEQQSISISKAGIVTTLQARCSIIAAANPNGGRYNSTLPLAQNVSLTEPILSRFDILCVVRDLVDEEADERLATFVVDSHVRSHPENDEDREGEELKNNGESAIEQGEDEINEQLNARQRRLQRQRKKEEEISPIPQELLMKYIHYARTKIYPKLHQMDMDKVSRVYADLRRESISTGSFPITVRHLESILRIAESFAKMRLSEFVSSYDLDRAIKVVVDSFVDAQKVSVRRQLRRSFAIYTLGH | – | binds | – |
| Cdc45 (subunit of CMG) (natural protein, yeast, Cdc45, yeast; Chain of m1 as it stands in the replisome structure; source: yeast strain yJCZ2, purified as part of CMG (anti-FLAG M2 resin, Mono Q, Superose 6)) MYYGISQFSEAYNKILRNSSSHSSCQLVIFVSCLNIDALCATKMLSLLFKKQLVQSQIVPIFGYSELRRHYSQLDDNINSLLLVGFGGVIDLEAFLEIDPQEYVIDTDEKSGEQSFRRDIYVLDAHRPWNLDNIFGSQIIQCFDDGTVDDTLGEQKEAYYKLLELDEESGDDELSGDENDNNGGDDEATDADEVTDEDEEDEDETISNKRGNSSIGPNDLSKRKQRKKQIHEYEGVLEEYYSQGTTVVNSISAQIYSLLSAIGETNLSNLWLNILGTTSLDIAYAQVYNRLYPLLQDEVKRLTPSSRNSVKTPDTLTLNIQPDYYLFLLRHSSLYDSFYYSNYVNAKLSLWNENGKKRLHKMFARMGIPLSTAQETWLYMDHSIKRELGIIFDKNLDRYGLQDIIRDGFVRTLGYRGSISASEFVEALTALLEVGNSTDKDSVKINNDNNDDTDGEEEEDNSAQKLTNLRKRWVSNFWLSWDALDDRKVELLNRGIQLAQDLQRAIFNTGVAILEKKLIKHLRIYRLCVLQDGPDLDLYRNPLTLLRLGNWLIECCAESEDKQLLPMVLASIDENTDTYLVAGLTPRYPRGLDTIHTKKPILNNFSMAFQQITAETDAKVRIDNFESSIIEIRREDLSPFLEKLTLSGLL | – | binds | – |
| Psf1 (subunit of GINS in CMG) (natural protein, yeast, Psf1, yeast, subunit of GINS; Chain of m1 as it stands in the replisome structure; also called Psf1 B domain; Psf1-B domain; source: yeast strain yJCZ2, purified as part of CMG (anti-FLAG M2 resin, Mono Q, Superose 6)) MYGDLGNKLVLEAKRTKQLYARSNQDVNLPMYHEDIIRNILKEVSNLRKNTEYLKEQQQLGMLDDKVAKCQYFVTLLCMERNKRCLLAYQRLRTDILDSMAWNNNGLDLMSSITFSQQDTNNLSHQEQEYLKEYCDLITDLKSGDLVDIDLSGSLVPPSDVFIDVRVLKDAGEIQTEYGVFNLIKDSQFFVRQSDVERLIQQGYLQKI | – | – | binding result [2]: binds |

Further lines, with some results ahead:

| binding result (Tof1-Csm3) | binding result [1] | Binder | other results |
| --- | --- | --- | --- |
| binds | – | Mcm4 (subunit of CMG) (natural protein, yeast, Mcm4, yeast; Chain of m1 as it stands in the replisome structure; source: yeast strain yJCZ2, purified as part of CMG (anti-FLAG M2 resin, Mono Q, Superose 6)) MSQQSSSPTKEDNNSSSPVVPNPDSVPPQLSSPALFYSSSSSQGDIYGRNNSQNLSQGEGNIRAAIGSSPLNFPSSSQRQNSDVFQSQGRQGRIRSSASASGRSRYHSDLRSDRALPTSSSSLGRNGQNRVHMRRNDIHTSDLSSPRRIVDFDTRSGVNTLDTSSSSAPPSEASEPLRIIWGTNVSIQECTTNFRNFLMSFKYKFRKILDEREEFINNTTDEELYYIKQLNEMRELGTSNLNLDARNLLAYKQTEDLYHQLLNYPQEVISIMDQTIKDCMVSLIVDNNLDYDLDEIETKFYKVRPYNVGSCKGMRELNPNDIDKLINLKGLVLRSTPVIPDMKVAFFKCNVCDHTMAVEIDRGVIQEPARCERIDCNEPNSMSLIHNRCSFADKQVIKLQETPDFVPDGQTPHSISLCVYDELVDSCRAGDRIEVTGTFRSIPIRANSRQRVLKSLYKTYVDVVHVKKVSDKRLDVDTSTIEQELMQNKVDHNEVEEVRQITDQDLAKIREVAAREDLYSLLARSIAPSIYELEDVKKGILLQLFGGTNKTFTKGGRYRGDINILLCGDPSTSKSQILQYVHKITPRGVYTSGKGSSAVGLTAYITRDVDTKQLVLESGALVLSDGGVCCIDEFDKMSDSTRSVLHEVMEQQTISIAKAGIITTLNARSSILASANPIGSRYNPNLPVTENIDLPPPLLSRFDLVYLVLDKVDEKNDRELAKHLTNLYLEDKPEHISQDDVLPVEFLTMYISYAKEHIHPIITEAAKTELVRAYVGMRKMGDDSRSDEKRITATTRQLESMIRLAEAHAKMKLKNVVELEDVQEAVRLIRSAIKDYATDPKTGKIDMNLVQTGKSVIQRKLQEDLSREIMNVLKDQASDSMSFNELIKQINEHSQDRVESSDIQEALSRLQQEDKVIVLGEGVRRSVRLNNRV | – |
| – | binds | Mcm5 (subunit of CMG) (natural protein, yeast, Mcm5, yeast; Chain of m1 as it stands in the replisome structure; also called Mcm5-CTD; Mcm5-WHD; source: yeast strain yJCZ2, purified as part of CMG (anti-FLAG M2 resin, Mono Q, Superose 6)) MSFDRPEIYSAPVLQGESPNDDDNTEIIKSFKNFILEFRLDSQFIYRDQLRNNILVKNYSLTVNMEHLIGYNEDIYKKLSDEPSDIIPLFETAITQVAKRISILSRAQSANNNDKDPENTSMDTDSLLLNSLPTFQLILNSNANQIPLRDLDSEHVSKIVRLSGIIISTSVLSSRATYLSIMCRNCRHTTSITINNFNSITGNTVSLPRSCLSTIESESSMANESNIGDESTKKNCGPDPYIIIHESSKFIDQQFLKLQEIPELVPVGEMPRNLTMTCDRYLTNKVIPGTRVTIVGIYSIYNSKNGAGSGRSGGGNGGSGVAIRTPYIKILGIQSDVETSSIWNSVTMFTEEEEEEFLQLSRNPKLYEILTNSIAPSIFGNEDIKKAIVCLLMGGSKKILPDGMRLRGDINVLLLGDPGTAKSQLLKFVEKVSPIAVYTSGKGSSAAGLTASVQRDPMTREFYLEGGAMVLADGGVVCIDEFDKMRDEDRVAIHEAMEQQTISIAKAGITTVLNSRTSVLAAANPIYGRYDDLKSPGDNIDFQTTILSRFDMIFIVKDDHNEERDISIANHVINIHTGNANAMQNQQEENGSEISIEKMKRYITYCRLKCAPRLSPQAAEKLSSNFVTIRKQLLINELESTERSSIPITIRQLEAIIRITESLAKLELSPIAQERHVDEAIRLFQASTMDAASQDPIGGLNQASGTSLSEIRRFEQELKRRLPIGWSTSYQTLRREFVDTHRFSQLALDKALYALEKHETIQLRHQGQNIYRSGV | – |
